In patent publication US20220033501A1 (SHANGHAI PHARMAEXPLORER, published 2022):
Changes are numbered by the printed parent chain.

B1: 7A4F10 fully human TIM-3 antibody (human IgG4, kappa) (antibody, V domains shown)
VH: EVQLLESGGGLVQPGGSLRLSCAASGFTFRTHLISWVRQAPGKGLEWVAAITGSGGSTYYADSVKGRFIISRDNSKNTLFLQMNSLRAEDTAVYYCAKDGGSGSYDDFWGQGTLVTVSS
VL: ETVLTQSPVTLSLSPGERATLSCRASQSVGSYLAWYQQKPGQAPRLLIYDASNRATGIPARFSGSGSGTDFTLTISSLEPEDFAVYYCQQRSNWPPTFGQGTKVEIK
B2: 18D2H2 fully human TIM-3 antibody (human IgG4, kappa) (antibody, V domains shown)
VH: EVQLVESGGDLVQPGGSLRLSCAASGFTFSTYWMTWVRQAPGRGLEWVANIKQDGSAKYYVDSVKGRFTLSRDDAKNSLYLQMNSLRAEDTAVYYCARGSNWFDYWGQGTLVTVSS
VL: ETVMTQSPATLSVSPGERATLSCRANQNVYSNLAWYQQKPGQAPRLLIYDASTRATGFPARFSGSGSGTEFTLTISSLQSEDFAVYYCQQYNNWPLTFGGGTKVEIK
B3: 34B6D8 fully human TIM-3 antibody (human IgG4, kappa) (antibody, V domains shown)
VH: B2 VH with D10G, R43K, G44R, D54G, S56G, A57D, L70I, R72T, D74N, Y105P
VL: EIVMTQSPATLSMSPGERATLSCRASQSVYDNLAWYQQKPGQAPRLLIYGASTRATGIPARFSGSGSGTEFTLTISSLQSEDFALYYCQQYTHWPITFGQGTRLEIK
B4: 39E5H1 fully human TIM-3 antibody (human IgG4, kappa) (antibody, V domains shown)
VH: EVQLVESGGGLVQPGGSLRLSCAASGFTFSSYWMSWVRQAPGKGLEWVANIKRGGSERYYVDSVKGRFTISGDNAKNSVYLQMNSLRAEDTAVYYCARGSNWFDPWGQGTLVTVSS
VL: B3 VL with I2T, T10I, M13V, D31S, P40L, G50D, L85V, T92N, H93N

Target: T1, monkey TIM-3 on CHOK1 stable cell line (CHOK1-cTIM-3) (monkey)
T1 chain: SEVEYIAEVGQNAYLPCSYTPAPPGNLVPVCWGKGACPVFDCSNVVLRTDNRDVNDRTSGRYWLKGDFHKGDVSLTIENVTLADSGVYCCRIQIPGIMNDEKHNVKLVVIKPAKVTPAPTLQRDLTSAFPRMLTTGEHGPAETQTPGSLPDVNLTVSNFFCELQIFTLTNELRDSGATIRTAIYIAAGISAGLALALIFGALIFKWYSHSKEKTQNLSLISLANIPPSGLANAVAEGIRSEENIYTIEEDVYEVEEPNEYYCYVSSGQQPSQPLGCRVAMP
Assay: FACS, CHOK1-cTIM-3 cells, 8 nM antibody

**Q.** How did the Mean fluorescence intensity turn out when B1 was run?
**A.** 325

**Q.** For B2, which Mean fluorescence intensity is on record?
**A.** 475

**Q.** With B3 as the binder, how does the Mean fluorescence intensity read?
**A.** 340

**Q.** For B4, which Mean fluorescence intensity is on record?
**A.** 349

Each binder was assayed against T2, human TIM-3 on CHOK1 stable cell line (CHOK1-hTIM-3) (human, UniProt Q8TDQ0 22-301) (assay: FACS, CHOK1-hTIM-3 cells, 1.6 nM antibody).
T2 sequence: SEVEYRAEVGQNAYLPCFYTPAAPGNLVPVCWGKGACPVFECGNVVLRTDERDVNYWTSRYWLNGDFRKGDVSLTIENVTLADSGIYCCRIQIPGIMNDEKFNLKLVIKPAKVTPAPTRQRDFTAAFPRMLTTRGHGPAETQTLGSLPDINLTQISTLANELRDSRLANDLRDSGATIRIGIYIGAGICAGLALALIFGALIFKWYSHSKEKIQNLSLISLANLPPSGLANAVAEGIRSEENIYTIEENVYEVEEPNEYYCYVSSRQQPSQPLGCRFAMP

**Q.** For B1, which Mean fluorescence intensity is on record?
**A.** 282

**Q.** How did the Mean fluorescence intensity turn out when B2 was run?
**A.** 232

**Q.** B3 was tested. Which Mean fluorescence intensity did it give?
**A.** 212

**Q.** How did the Mean fluorescence intensity turn out when B4 was run?
**A.** 191

Target: T3, murine TIM-3 extracellular domain protein with hFc tag (mTIM-3-hFc) (mouse, UniProt Q8VIM0 29-191)
T3 construct: also called mouse TIM-3 extracellular domain protein; not shown: human IgG Fc fragment (hFc) of the pCpC vector
T3 chain: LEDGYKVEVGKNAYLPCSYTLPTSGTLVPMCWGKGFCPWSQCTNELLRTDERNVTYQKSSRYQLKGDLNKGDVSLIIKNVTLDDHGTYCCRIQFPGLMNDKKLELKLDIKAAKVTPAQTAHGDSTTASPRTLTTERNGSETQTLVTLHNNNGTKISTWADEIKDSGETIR
Assay: ELISA, coated mouse TIM-3 ECD protein, 0.0001 nM antibody

**Q.** With B1 as the binder, how does the OD450 read?
**A.** 0.22

**Q.** How did the OD450 turn out when B2 was run?
**A.** 0.21

**Q.** B3 was tested. Which OD450 did it give?
**A.** 0.23

**Q.** Which OD450 does the source give for B4 here?
**A.** 0.23

Target: T3, murine TIM-3 extracellular domain …
Assay: ELISA, coated mouse TIM-3 ECD protein, 0.0007 nM antibody

**Q.** With B1 as the binder, how does the OD450 read?
**A.** 0.22

**Q.** How did the OD450 turn out when B2 was run?
**A.** 0.21

**Q.** Which OD450 does the source give for B3 here?
**A.** 0.24

**Q.** With B4 as the binder, how does the OD450 read?
**A.** 0.23
